System: MS2 coat protein
Assay: apparent KD of MS2 coat protein; designed switch direction (-1 OFF switch, 1 ON switch): -1; higher = weaker reporter binding
In short: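 The buffer was Tris-HCl pH 7.5 with KCl, MgCl2, BSA, DTT, tRNA and Tween-20. In it, SNAP-549-labelled MS2 coat protein was titrated in doubling steps from 0.7 or 1.5 nM to 3 µM over chip-bound RNA switches transcribed by stalled E. coli RNA polymerase on Illumina chips. Apparent KD is the per-design median over clusters of curve fits to normalised fluorescence.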

[1] = Eterna round: R95, input ligand: FMN 200 uM
[2] = Eterna round: R95, input ligand: microRNA oligo, concentration not stated
[3] = Eterna round: R95, input ligand: none
[4] = input ligand: microRNA oligo, concentration not stated

| Sequence | apparent KD of MS2 coat protein [1] [nM] | apparent KD of MS2 coat protein [2] [nM] | apparent KD of MS2 coat protein [3] [nM] | apparent KD of MS2 coat protein (input ligand: FMN 200 uM) [nM] | apparent KD of MS2 coat protein [4] [nM] | apparent KD of MS2 coat protein (input ligand: none) [nM] |
| --- | --- | --- | --- | --- | --- | --- |
| GGCCCUAGGGUCAGACGCACAAGCUUUUUGCUCGUUUUAACAUGAGGAUCACCCAUGUCUAGUGGAUCUGAUCGGGU [Mausinonra] (puzzle: Sensor v3, turn-off variant 2) | 20.6 | 111 | 18.5 | – | – | – |
| GUGUACAGAGGAUAUACUCAUGGAGUUACGAAAGUAACUUCACAUGAGGAUCACCCAUGUAGAAGGCUGUACAC [Dot plot directed v9] (puzzle: Exclusion 2) | – | 341 | – | – | – | – |
| UCGGCGCGAGGAUAUACGUUUGCUCUUUUUCGUUUUUGUGUACAUGAGGAUCACCCAUGUAGAAGGCGCGCCGC [Apr-15 SS2-19] (Eterna round: R96, puzzle: Exclusion 2) | – | – | – | 80.9 | 17.3 | 31.5 |
| CUUAAUUGUCAGAUGGGUGACAUGAGGAUCACCCAUGUCACAAGCUUUUUGUUCGUCUUAUAAUUAACCCAUCUGAC [Stov1/11-B3] (Eterna round: R97, puzzle: Sensor, turn-off variant 1) | – | – | – | 14.5 | – | 12.3 |
| CCCAGAUAAGGAUAUUGAAGGUUCGACAUGAGGAUCACCCAUGUUAUGUUGGAAAAGGGACAAGAAGGUAUGAAAA [salish99_ex5_r4_216] (Eterna round: R97, puzzle: Exclusion 5) | – | – | – | 31.2 | – | 33.1 |
| UAUUUGCAAGCGAGAUCCCACAUGAGGAUCACCCAUGUGCUCGUCUUAUAAGGUACUGUGACGAAAGUCACGGUACC [Sensor 3, v1 - 91 v26] (Eterna round: R97, puzzle: Sensor, turn-off variant 1) | – | – | – | 16.5 | – | 13.7 |
| CUUUACAAGCUAAGAUCCUACAUGAGGAUCACCCAUGUGGUCCGGUGACGUGAGUCACCGGACUUAGCUCGUCUUGU [salish99_S_TOV1_R5_096] (Eterna round: R97, puzzle: Sensor, turn-off variant 1) | – | – | – | 41.5 | – | 42.6 |
| GCCUUAUCCGUCAGGAUAUACAGCCGCUCCCUGUUGUAGAAGGGACAUGAGGAUCACCCAUGUACGUACCAUUG [alecazam6] (Eterna round: R97, puzzle: Brourd's mod of Exclusion 4) | – | – | – | 31.8 | – | 39.1 |
| UGUGCGUAUGUGAGGAUAUGCUGGUCCUUGGCUCGGCAGAAGGCACAUGAGGAUCACCCAUGUGGUGUCGUACU [salish99_Bmod_ex4_067] (puzzle: Brourd's mod of Exclusion 4) | – | 75.6 | – | – | – | – |
| CAUUACUACAAGCUAUGGGACAUGAGGAUCACCCAUGUUCGUCUUAUUGAUCUAGGUACGCUGACGUACCUAGAUCU [JL-sv1-2.22 Brourd mod] (puzzle: Sensor v3, turn-off variant 1) | 16.6 | 21.6 | 15.7 | – | – | – |
| AGCCCUGCAGGAUAUGCCCGGGAUAACAUGAGGAUCACCCAUGUGACUGAUUGUUAUUCUGCAGAAGGGCAUGGGA [JL-EX5-4.14 ViennaUCT mod] (Eterna round: R97, puzzle: Exclusion 5) | – | – | – | 335 | – | 494 |
| AAAUACAGAGGAUAUAUGGAAAACGACUUGAGGAUCACCCAAGUACGGGUGGCCUAACCCGUAGAAGGCUGCCAAA [Tibece] (Eterna round: R97, puzzle: Exclusion 5) | – | – | – | 72.5 | – | 30.6 |
| GUGAAGGUAGGAUAUACGAUAAUAUAGGGUAGAUAUAUAACACAUGAGGAUCACCCAUGUAGAAGGACCAAUUG [Mat - Exclusion 2 - Mod of my Tesla design - D59] (puzzle: Exclusion 2) | – | 29.1 | – | – | – | – |
| GAUUAUGCGAGCUUUAGGGACAUGAGGAUCACCCAUGUUCGUCUUAUUAAUCUGGGUACGCUAACAUACCUAAAUCU [JMF 41] (puzzle: Sensor v3, turn-off variant 1) | 28.5 | 40.7 | 26.7 | – | – | – |
| GCGGACAAGAUGGAGACAUCAGAGACAUGAGGAUCACCCAUGUAGGAUAUCGAUUCGAAACGAAUCGAGAAGGGCAUAGUCCGC [JL denovo 2] (Eterna round: R96, puzzle: Exclusion NG 3) | – | – | – | 16.8 | 13.3 | 19.2 |
| CUAAAAGUCGAGGAUAUGCACCGUUUCGCUGACGCAGAAGGCGACACAUGAGGAUCACCCAUGUCGGUACGCGA [salish99_ex6_r004_456] (Eterna round: R97, puzzle: Exclusion 6) | – | – | – | 27.7 | – | 23.5 |
| UGCAUGCUAGGAUAUGCCGAGGAGAACAUGAGGAUCACCCAUGUGACCCGGAUGCCUUGAGCAGAAGGAGCUACUA [EX5 C.19] (Eterna round: R97, puzzle: Exclusion 5) | – | – | – | 22.4 | – | 15.2 |

| Sequence | apparent KD of MS2 coat protein [1] [nM] | apparent KD of MS2 coat protein [2] [nM] | apparent KD of MS2 coat protein [3] [nM] | apparent KD of MS2 coat protein (input ligand: FMN 200 uM) [nM] | apparent KD of MS2 coat protein [4] [nM] | apparent KD of MS2 coat protein (input ligand: none) [nM] |
| --- | --- | --- | --- | --- | --- | --- |
| AGAUCUCAUGACGUUUGCAACAUGAGGAUCACCCAUGUGAGGAGGGUAAACAAACCAAGCUUCGUGCUCGUCUAUAA [Eternabot (Original) Solution 46] (Eterna round: R97, puzzle: Sensor, turn-off variant 1) | – | – | – | 38.9 | – | 52.3 |
| AGAGUGCUGCGAGGAUAUACAUGAGGAUCACCCAUGUGGAUCUGUGAGGCAAAGCCUCACAGGAUGUAGAAGGCGCAGUACUCA [Mat - Exclusion NG 2 - Mod of JL - D49] (Eterna round: R96, puzzle: Exclusion NG 2) | – | – | – | 156 | 23.4 | 28.9 |
| CCGGAAAUGAAGGAUAUAGGUGUCGAUAGACUCCUAGAAGGUCAUACAUGAGGAUCACCCAUGUGUCCUACCGG [Fiskers Ex 6 - 76] (Eterna round: R96, puzzle: Exclusion 6) | – | – | – | 36.7 | 13.3 | 18 |
| CGGAGCAGAGGGAGAUCCAACAUGAGGAUCACCCAUGUCUCACAAGCUUUUUGCUCGUCUUAUUGUACCUUGGUACU [JL ViennaUCT Edcesobi mod 8] (puzzle: Sensor v3, turn-off variant 1) | 155 | 9.75 | 54.6 | – | – | – |
| GAGGAACAUGAGGAUCACCCAUGUAAGGAUAUGCGAGACUAAAGCGCGCAGGCUAAGAGCAGAAGGUGCAAGGA [Excls1-IIa] (puzzle: Exclusion 1) | 36 | 28.7 | 32.8 | – | – | – |
| UCUUUACAUGAGGAUCACCCAUGUGAGGAUAUGGUUUCGCUGGCCGUAGCCAGUGGAACCAGAAGGCGCAUGAU [Mat - Exclusion 1 - JL Mod - D9] (Eterna round: R97, puzzle: Exclusion 1) | – | – | – | 51.4 | – | 27.9 |
| GUCAGACGAGGAUAUAGAUUUAGAUACAUGAGGAUCACCCAUGUAUAUAUGUAUUUAGAUUUAGAAGGCGUCUGAC [E5/15-A3] (Eterna round: R97, puzzle: Exclusion 5) | – | – | – | 187 | – | 240 |
| ACAUGAGGAUCACCCAUGUCCGGCUGGUCUGUUCCGGUUGUCGAGGAUAUAGUUCGGUGUUCGCGCUAGAAGGUGGGAGCUGGG [Aenatbe mod 55] (Eterna round: R96, puzzle: Exclusion NG 3) | – | – | – | 308 | 163 | 190 |
| CCAAGCUUUUUCAAUAACAACAUGAGGAUCACCCAUGUUUAAGCUAUUACUUUUGGGCUCUUUAGUGCUAGUCUUAU [JR_STOV1_Sub038] (Eterna round: R97, puzzle: Sensor, turn-off variant 1) | – | – | – | 18 | – | 18.2 |
| AUCGUGCAGCUUUGCUGUACGAGUACAUGAGGAUCACCCAUGUAGGAUAUGGUACGCUUUGCGUGCUAGAAGGAUAUGAGAUUU [JL ENG3 1.50] (Eterna round: R96, puzzle: Exclusion NG 3) | – | – | – | 41.7 | 24.3 | 38.6 |
| GGUGGACAUGAGGAUCACCCAUGUGAGGAUAUCGGCUGGCUAGCGGCGGACGGCUGCUCGAGAAGGCGCAUUGU [Exclusion 1 V84] (puzzle: Exclusion 1) | – | 61.1 | – | – | – | – |
| GCGGGCUUUUAGGUUCUUAACAUGAGGAUCACCCAUGUGCUCGUCUUGCCGGCCGGCGGGCCGCCGGCCGGGCUUGU (Eterna round: R97, puzzle: Sensor, turn-off variant 1) | – | – | – | 66.4 | – | 68.2 |
| UAGAAUCGAGGAUAUACAUGAGGAUCACCCAUGUGUGGCCAUACUGUGUGGUCGUCAGGUAGAAGGCGAUUAUA [Exclusion 3 - Mod of Jieux's Gilly Gone Silly 23] (puzzle: Exclusion 3) | – | 45.4 | – | – | – | – |
| ACUAGAUGAGGAUAUGCAUAUUUUCGUGUUCUUCUAGAUUAACAUGAGGAUCACCCAUGUAGAAGGCGUCAUUA [Exclusion 2 - 17] (puzzle: Exclusion 2) | – | 16.6 | – | – | – | – |
| GGGCGUAGGCAGGAUAUGUAAGGCUGUUGGUCUAUAGAAGGGUUUACAUGAGGAUCACCCAUGUGACCGAACCG [Eternabot (L2) Solution 16] (Eterna round: R97, puzzle: Exclusion 6) | – | – | – | 18.2 | – | 16.4 |
| GUAAAACAUGUAGGAUAUGCGUGGCAAAGCUAUGCAGAAGGACAUGAGGAUCACCCAUGUUAAAGCGUCUGAGUACAGAUGCAA [Mat - Exclusion NG 1 - Mod of JL - D96] (Eterna round: R96, puzzle: Exclusion NG 1) | – | – | – | 445 | 27.4 | 36 |
| AGUAGGUCUACCUUGGUGGAUCUGCAUUAUGCAAGUGAUACAUGAGGAUCACCCAUGUCCUCAUUUGCUCGUCUUAU [JL turnoff v2 99.24] (puzzle: Sensor v3, turn-off variant 2) | 17.3 | 242 | 16.1 | – | – | – |
